Test results taken from publication PMC5505246, “Assembly of Francisella novicida Cpf1 endonuclease in complex with guide RNA and target DNA”.

Molecular target: FnCpf1 (Cas12a) (Francisella novicida U112, UniProt A0Q7Q2 1-1300)
Assay: native PAGE / preparative native electrophoresis; 5 mM MgCl2; protein:RNA:DNA 1:1.3:1.7; Reconstitution: 81 mM KCl, 38 mM bicine pH 8.0, 5 mM MgCl2; protein + crRNA 30 min at 293 K, then DNA duplex 60 min at 368 K (so in the source); complex in 150 mM KCl, 50 mM bicine pH 8.0, 0.5 mM TCEP
Conditions: protein: recombinant; tags: C-terminal His6; crRNA-guided DNA target

FnCpf1 (Cas12a), sequence (A0Q7Q2 whole entry): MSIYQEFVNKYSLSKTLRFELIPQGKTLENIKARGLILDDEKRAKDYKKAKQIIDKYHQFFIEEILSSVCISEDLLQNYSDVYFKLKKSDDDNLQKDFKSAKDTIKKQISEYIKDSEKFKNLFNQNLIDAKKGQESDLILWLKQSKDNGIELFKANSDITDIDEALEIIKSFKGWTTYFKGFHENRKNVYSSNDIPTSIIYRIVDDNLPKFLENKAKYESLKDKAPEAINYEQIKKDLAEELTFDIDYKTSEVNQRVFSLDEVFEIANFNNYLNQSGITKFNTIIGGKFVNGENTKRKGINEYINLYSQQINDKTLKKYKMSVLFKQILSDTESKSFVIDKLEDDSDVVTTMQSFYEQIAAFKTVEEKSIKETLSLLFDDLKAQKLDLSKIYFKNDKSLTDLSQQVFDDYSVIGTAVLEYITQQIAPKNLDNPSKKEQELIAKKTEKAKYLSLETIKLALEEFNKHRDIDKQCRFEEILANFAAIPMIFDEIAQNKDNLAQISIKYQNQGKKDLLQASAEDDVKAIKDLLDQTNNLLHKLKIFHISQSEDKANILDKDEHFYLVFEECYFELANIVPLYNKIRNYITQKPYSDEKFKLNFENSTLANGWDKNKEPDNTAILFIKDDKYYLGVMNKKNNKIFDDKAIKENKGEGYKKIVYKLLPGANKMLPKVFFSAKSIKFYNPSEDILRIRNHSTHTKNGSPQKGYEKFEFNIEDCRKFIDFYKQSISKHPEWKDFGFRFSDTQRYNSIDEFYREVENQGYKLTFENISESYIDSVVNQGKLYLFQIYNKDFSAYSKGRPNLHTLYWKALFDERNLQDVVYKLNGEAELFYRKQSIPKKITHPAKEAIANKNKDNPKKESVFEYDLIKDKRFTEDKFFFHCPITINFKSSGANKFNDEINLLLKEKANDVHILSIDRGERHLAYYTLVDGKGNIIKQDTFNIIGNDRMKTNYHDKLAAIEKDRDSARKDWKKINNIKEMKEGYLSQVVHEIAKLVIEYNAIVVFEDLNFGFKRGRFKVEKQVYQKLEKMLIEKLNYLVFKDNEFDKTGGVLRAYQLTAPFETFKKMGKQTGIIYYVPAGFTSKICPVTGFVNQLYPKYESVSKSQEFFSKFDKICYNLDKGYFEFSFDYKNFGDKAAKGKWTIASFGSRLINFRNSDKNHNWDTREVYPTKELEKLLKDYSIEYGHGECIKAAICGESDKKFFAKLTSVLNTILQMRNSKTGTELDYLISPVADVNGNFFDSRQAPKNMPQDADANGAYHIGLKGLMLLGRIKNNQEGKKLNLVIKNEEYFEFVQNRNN

B1: crRNA + 31-nt dsDNA target (target and nontarget strands) (mixed)
RNA: AAUUUCUACUGUUGUAGAUGAGAAGUCAUUUAAUAAGGCCACU
DNA 1: GCAGTGGCCTTATTAAATGACTTCTCTAACG
DNA 2: CGTTAGAGAAGTCATTTAATAAGGCCACTGC
binding result: binds
